# The supplement of paper PMC9112550, “Optimization of the antimicrobial peptide Bac7 by deep mutational scanning” (BMC Biology, 2022)
# System: Escherichia coli TOP10
# Experiment: shrunken log2 fold change of peptide-encoding DNA abundance (4.5 h post-induction vs induction); higher = less antimicrobial activity (less host growth inhibition)
# Details: time post-induction: 4.5 h; library: site-saturation at positions 5, 18, 19, 20
# 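Note: peptides expressed intracellularly from a pBAD plasmid library in pooled LB shake-flask culture, induced with 0.3% L-arabinose, DNA abundance read by NGS, three biological replicates, DESeq2 with apeglm shrinkage.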
row,Sequence,shrunken log2 fold change
1,RRIRARPPRLPRPRPRPDFFPRP,0.307
2,RRIRCRPPRLPRPRPRPSLMPRP,-0.287
3,RRIRARPPRLPRPRPRPFTKPRP,-0.295
4,RRIRQRPPRLPRPRPRPCSAPRP,-0.257
5,RRIRFRPPRLPRPRPRPGKAPRP,0.0429
6,RRIRIRPPRLPRPRPRPYTSPRP,-0.434
7,RRIRPRPPRLPRPRPRPLPYPRP,-0.31
8,RRIRGRPPRLPRPRPRPDICPRP,0.2
9,RRIRLRPPRLPRPRPRPKMRPRP,0.608
10,RRIRWRPPRLPRPRPRPCWCPRP,-0.215
11,RRIRFRPPRLPRPRPRPIDPPRP,-0.526
12,RRIRKRPPRLPRPRPRPRGLPRP,0.41
13,RRIRIRPPRLPRPRPRPVLGPRP,0.0875
14,RRIRERPPRLPRPRPRPTAHPRP,0.0481
15,RRIRERPPRLPRPRPRPARYPRP,0.24
16,RRIRNRPPRLPRPRPRPVENPRP,-0.0754
17,RRIRGRPPRLPRPRPRPKRYPRP,0.253
18,RRIRKRPPRLPRPRPRPGTFPRP,0.253
19,RRIRDRPPRLPRPRPRPCNNPRP,-0.931
20,RRIRARPPRLPRPRPRPGGWPRP,1.26
21,RRIRNRPPRLPRPRPRPMYPPRP,-0.271
22,RRIRRRPPRLPRPRPRPQCFPRP,0.212
23,RRIRRRPPRLPRPRPRPFFNPRP,-0.0577
24,RRIRIRPPRLPRPRPRPPLAPRP,0.293
25,RRIRARPPRLPRPRPRPRCRPRP,0.427

row,Sequence,shrunken log2 fold change
1,RRIRRRPPRLPRPRPRPHHRPRP,0.0911
2,RRIRSRPPRLPRPRPRPQAPPRP,0.142
3,RRIRMRPPRLPRPRPRPKWAPRP,0.0251
4,RRIRCRPPRLPRPRPRPLIVPRP,-0.596
5,RRIRFRPPRLPRPRPRPIRAPRP,-0.0742
6,RRIRHRPPRLPRPRPRPPMPPRP,0.108
7,RRIRTRPPRLPRPRPRPEMEPRP,0.0702
8,RRIRPRPPRLPRPRPRPCWTPRP,-0.397
9,RRIRLRPPRLPRPRPRPEGFPRP,0.604
10,RRIRLRPPRLPRPRPRPGYIPRP,-0.41
11,RRIRPRPPRLPRPRPRPNWIPRP,-0.441
12,RRIRLRPPRLPRPRPRPDPYPRP,0.0541
13,RRIRARPPRLPRPRPRPYAHPRP,-0.149
14,RRIRYRPPRLPRPRPRPDMNPRP,0.00911
15,RRIRWRPPRLPRPRPRPLHIPRP,-0.465
16,RRIRSRPPRLPRPRPRPVWDPRP,-0.143
17,RRIRFRPPRLPRPRPRPTHPPRP,-0.0806
18,RRIRDRPPRLPRPRPRPRPYPRP,0.018
19,RRIRRRPPRLPRPRPRPLPGPRP,0.59
20,RRIRGRPPRLPRPRPRPRPLPRP,0.902
21,RRIRDRPPRLPRPRPRPNGEPRP,0.0768
22,RRIRWRPPRLPRPRPRPQEIPRP,-0.0137
23,RRIRKRPPRLPRPRPRPFWWPRP,0.592
24,RRIRSRPPRLPRPRPRPMSSPRP,-0.313
25,RRIRYRPPRLPRPRPRPLLQPRP,-0.309

row,Sequence,shrunken log2 fold change
1,RRIRRRPPRLPRPRPRPKKCPRP,-0.325
2,RRIRVRPPRLPRPRPRPIHQPRP,-0.166
3,RRIRHRPPRLPRPRPRPYSMPRP,-0.878
4,RRIRQRPPRLPRPRPRPPWKPRP,0.467
5,RRIRDRPPRLPRPRPRPRFDPRP,-0.0584
6,RRIRYRPPRLPRPRPRPHLHPRP,-1.12
7,RRIRERPPRLPRPRPRPERLPRP,0.171
8,RRIRLRPPRLPRPRPRPTDRPRP,-0.00223
9,RRIRIRPPRLPRPRPRPTVFPRP,-0.237
10,RRIRMRPPRLPRPRPRPLWMPRP,0.0202
11,RRIRGRPPRLPRPRPRPGVWPRP,1.22
12,RRIRARPPRLPRPRPRPTEGPRP,0.941
13,RRIRTRPPRLPRPRPRPRYNPRP,-0.712
14,RRIRLRPPRLPRPRPRPHMFPRP,-0.356
15,RRIRERPPRLPRPRPRPSPKPRP,0.0298
16,RRIRQRPPRLPRPRPRPKRFPRP,-0.0339
17,RRIRQRPPRLPRPRPRPVQVPRP,-0.0564
18,RRIRDRPPRLPRPRPRPWCPPRP,-0.422
19,RRIRARPPRLPRPRPRPRNHPRP,0.0958
20,RRIRDRPPRLPRPRPRPQTHPRP,0.269
21,RRIRWRPPRLPRPRPRPFHGPRP,-0.229
22,RRIRERPPRLPRPRPRPSCTPRP,-0.815
23,RRIRFRPPRLPRPRPRPVNRPRP,0.188
24,RRIRARPPRLPRPRPRPFVPPRP,-0.0963
25,RRIRRRPPRLPRPRPRPGCAPRP,0.73
